Test results: patent publication US20090053198A1 (published 2009)

Target: T1, human E-selectin on CHO-E cells (human, UniProt P16581 22-610)
T1 construct: whole, on cells
T1 sequence (looked up): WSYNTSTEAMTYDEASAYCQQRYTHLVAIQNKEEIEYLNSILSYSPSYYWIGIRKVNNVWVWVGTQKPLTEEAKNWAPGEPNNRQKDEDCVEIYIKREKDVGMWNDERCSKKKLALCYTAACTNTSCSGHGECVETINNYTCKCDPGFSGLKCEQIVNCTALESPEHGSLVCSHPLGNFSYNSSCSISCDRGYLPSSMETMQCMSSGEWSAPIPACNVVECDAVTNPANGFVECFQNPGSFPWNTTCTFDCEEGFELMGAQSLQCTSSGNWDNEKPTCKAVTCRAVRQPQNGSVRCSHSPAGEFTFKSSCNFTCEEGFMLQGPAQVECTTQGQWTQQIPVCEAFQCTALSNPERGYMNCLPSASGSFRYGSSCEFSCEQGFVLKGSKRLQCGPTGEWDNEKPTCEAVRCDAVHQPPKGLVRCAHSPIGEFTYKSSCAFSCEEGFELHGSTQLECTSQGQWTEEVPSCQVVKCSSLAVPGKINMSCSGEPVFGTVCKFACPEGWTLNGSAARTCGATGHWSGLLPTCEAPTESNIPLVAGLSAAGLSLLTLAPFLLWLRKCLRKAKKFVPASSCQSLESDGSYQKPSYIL
Assay: blot rolling assay: CHO-E perfused at 0.6 dyne/cm^2 over blotted ML-M membrane glycoproteins (˜130 kDa band)
From the text: Blot rolling assays: The blot rolling assay has been described previously²⁹. CHO-E were washed in PBS, and resuspended to 2×10⁶ cells/ml in assay buffer/10% glycerol. […] These blots were then placed in the parallel plate flow chamber, and CHO-E were perfused into the chamber at a shear stress of 0.6 dyne/cm²; an adjustment in the volumetric flow rate was made to account for the increase in viscosity due to the presence of 10% glycerol in the assay buffer. Molecular weight standards (SeeBlue® Plus2 prestained molecular weight standard; Invitrogen Corporation; Carlsbad, Calif.) were co-electrophoresed on adjacent lanes and served as a guide to aid placement of the flow chamber over the stained bands of interest. The number of tethering and rolling CHO-E was tabulated as function of the molecular weight region and compiled into an adhesion histogram. Negative controls were prepared by adding 10 mM EDTA to the assay buffer to chelate Ca²⁺ required for binding or treating CHO-E with anti E-selectin mAb, 68-5411, at 4° C. for 15 min. prior to use in adhesion assays.
For these experiments, we could not assess binding interactions over the entire lane due to the length restriction of the flow chamber; because the differences in HECA-reactivity in proteins from ML and NL clustered within mobilities encompassing 30 kDa-170 kDa, we set the field view over this range. […]

binding result: binds
B1: PSGL-1 (P-selectin glycoprotein ligand-1) of G-CSF mobilized leukocytes (ligand, human, UniProt Q14242 42-412, looked up)
chain: QATEYEYLDYDFLPETEPPEMLRNSTDTTPLTGPGTPESTTVEPAARRSTGLDAGGAVTELTTELANMGNLSTDSAAMEIQTTQPAATEAQTTQPVPTEAQTTPLAATEAQTTRLTATEAQTTPLAATEAQTTPPAATEAQTTQPTGLEAQTTAPAAMEAQTTAPAAMEAQTTPPAAMEAQTTQTTAMEAQTTAPEATEAQTTQPTATEAQTTPLAAMEALSTEPSATEALSMEPTTKRGLFIPFSVSSVTHKGIPMAASNLSVNYPVGAPDHISVKQCLLAILILALVATIFFVCTVVLAVRLSRKGHMYPVRNYSPTEMVCISSLLPDGGEGPSATANGGLSKAKSPGLTPEPREDREGDDLTLHSFLP
modifications: sialofucosylated (HECA-452-reactive) glycans; positions not given
notes: Native glycoprotein from donor cells; seen as ˜220 kDa dimer and ˜130 kDa monomer on blots; also called ˜220 kDa band (dimer); ˜130 kDa band (monomer)
